Source: PMC5928155, “Sak4 of Phage HK620 Is a RecA Remote Homolog With Single-Strand Annealing Activity Stimulated by Its Cognate SSB Protein” (Frontiers in Microbiology, 2018)

Experiments:
[1] = biological target: SSB_(HK620), wild-type HkaK protein from phage HK620 (phage HK620) (UniProt Q9AZ30)
[2] = biological target: T1, Sak4 (HkaL) of phage HK620 (Enterobacteria phage HK620, UniProt Q9AZ29); test: gel shift of Cy5-labelled 81-mer ssDNA and single-strand annealing assay, with or without ATP; settings: 1 mM ATP, 5 mM MgCl2, about 150-169 mM NaCl, pH 7.5, 30 °C; ATP needed for ssDNA binding and annealing; functional evidence, nucleotide binding not measured directly
T1 construct: untagged full-length Sak4 from plasmid pSMG288, expressed in E. coli ER2566; monomer in solution
T1 sequence (Q9AZ29 1-226): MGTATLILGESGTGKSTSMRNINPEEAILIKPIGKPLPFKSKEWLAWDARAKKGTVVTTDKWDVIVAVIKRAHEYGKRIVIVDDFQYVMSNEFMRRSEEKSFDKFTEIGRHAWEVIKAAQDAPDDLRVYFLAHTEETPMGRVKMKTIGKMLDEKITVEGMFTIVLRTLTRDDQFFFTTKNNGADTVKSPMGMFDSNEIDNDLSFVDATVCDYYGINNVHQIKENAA

[3] = biological target: the molecule itself; test: SEC; Superdex 200 10/300 GL; proteins alone or together in 1 mL of 50 mM Tris-HCl pH 8, 1 mM DTT, 5% glycerol, 150 mM NaCl, 20 min at 30°C before injection; fractions analysed by SDS-PAGE; no ssDNA, no ATP
SSB HK620 (HkaK) = biological target: T2, SSB HK620 (HkaK) (Enterobacteria phage HK620, UniProt Q9AZ30 1-195); test: EMSA; 5 mM Mg2+, 1 mM ATP; EMSA: 13 mM Tris-HCl pH 7.5, 5 mM MgCl2, 169 mM NaCl, 0.1 mg/mL BSA, 1 mM DTT, +/- 1 mM ATP, 10 nM DNA, 15 min at 30 C; 5% native PAGE in 1X TAE; settings: protein: recombinant; tags: untagged; chain copies: 4; label: 5'-Cy5; single strand
T2 sequence: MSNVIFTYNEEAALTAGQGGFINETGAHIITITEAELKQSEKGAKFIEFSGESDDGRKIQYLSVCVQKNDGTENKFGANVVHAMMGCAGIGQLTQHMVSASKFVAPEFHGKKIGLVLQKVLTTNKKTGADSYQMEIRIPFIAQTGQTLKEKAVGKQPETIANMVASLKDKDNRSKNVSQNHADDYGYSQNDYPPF

SSB Ecoli = SSB Ecoli (Escherichia coli, UniProt P0AGE0 2-178); test: as above; settings: protein: commercial; chain copies: 4; label: 5'-Cy5; single strand
[4] = biological target: T3, Sak4 (HkaL);SSB HK620 (HkaK) (Enterobacteria phage …, UniProt Q9AZ29;Q9AZ30 1-226;1-195, |); test: EMSA; Sak4 titrated on GO47 precoated with 5.1 uM SSB HK620; 1 mM ATP; value is Sak4 concentration; EMSA: 13 mM Tris-HCl pH 7.5, 5 mM MgCl2, 169 mM NaCl, 0.1 mg/mL BSA, 1 mM DTT, +/- 1 mM ATP, 10 nM DNA, 15 min at 30 C; 5% native PAGE in 1X TAE; settings: protein: recombinant;recombinant; tags: none stated;untagged; copies: 1;4; label: 5'-Cy5; single strand
T3 sequence 1: T1 sequence (Q9AZ29 1-226)
T3 sequence 2: T2 sequence

Sak4 (HkaL) [5] = biological target: T4, Sak4 (HkaL) (Enterobacteria phage HK620, UniProt Q9AZ29 1-226); test: EMSA; 1 mM ATP, 5 mM Mg2+; EMSA: 13 mM Tris-HCl pH 7.5, 5 mM MgCl2, 169 mM NaCl, 0.1 mg/mL BSA, 1 mM DTT, +/- 1 mM ATP, 10 nM DNA, 15 min at 30 C; 5% native PAGE in 1X TAE; settings: protein: recombinant; tags: none stated; label: 5'-Cy5; single strand
T4 sequence: T1 sequence (Q9AZ29 1-226)

Sak4 (HkaL) [6] = biological target: T4, Sak4 (HkaL); test: EMSA; 3.7 uM Sak4, 1 mM ATP; EMSA: 13 mM Tris-HCl pH 7.5, 5 mM MgCl2, 169 mM NaCl, 0.1 mg/mL BSA, 1 mM DTT, +/- 1 mM ATP, 10 nM DNA, 15 min at 30 C; 5% native PAGE in 1X TAE; settings: protein: recombinant; tags: none stated; label: 5'-Cy5 on GO47; blunt

SSB Ecoli, sequence (P0AGE0 2-178): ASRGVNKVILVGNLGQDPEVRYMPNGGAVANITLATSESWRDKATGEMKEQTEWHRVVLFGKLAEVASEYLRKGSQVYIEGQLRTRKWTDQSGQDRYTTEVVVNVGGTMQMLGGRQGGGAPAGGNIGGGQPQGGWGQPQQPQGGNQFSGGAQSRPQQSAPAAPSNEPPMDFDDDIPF

Sak4 protein of phage HK620 (natural protein)
single-strand annealing of GO47 and GO34 (10 nM each) by 0.5 µM Sak4 with SSB (HK620) at concentrations above 640 nM, 1 mM ATP (spontaneous annealing 11.8%) [1]: > 65%

Nc1ncnc2c1ncn2[C@@H]1O[C@H](COP(=O)(O)OP(=O)(O)OP(=O)(O)O)[C@@H](O)[C@H]1O [ATP]
gel shift of Cy5-labelled 81-mer ssDNA and single-strand annealing assay, with o [2]: Sak4 shifted the ssDNA only if ATP was added in the reaction buffer

B1: SSB_(HK620), wild-type HkaK protein from phage HK620 (natural protein, UniProt Q9AZ30 1-195, looked up)
chain: T2 sequence
notes: HkaK (first annotated Abc1) of phage HK620, a distant SSB homolog (Pfam DUF669); produced untagged; monomer 21.3 kDa; Untagged; also called Abc1_(HK620); HkaK/Abc1_(HK620); source: E. coli ER2566 with pSMG279, purified (PEI, ammonium sulfate, HiTrap Heparin)
stoichiometry N [3]: 4

B2: GO47 (ssDNA)
DNA: ACCTGAATCGCCAGCGGCATCAGCACCTTGTCGCCTTACGTATACTATTTGCCCATGGTGAAAACGGGGGCGAAGAAGTTG
apparent K (half saturation) (SSB HK620 (HkaK)): 226 nM | apparent K (half saturation) (SSB Ecoli): ~40 nM | apparent K (half saturation) [4]: < 500 nM | apparent K (half saturation) (Sak4 (HkaL) [5]): ~1850 nM

B3: GO47/GO34 duplex (dsDNA)
DNA 1: B2 DNA
DNA 2: CAACTTCTTCGCCCCCGTTTTCACCATGGGCAAATAGTATACGTAAGGCGACAAGGTGCTGATGCCGCTGGCGATTCAGGT
binding result (Sak4 (HkaL) [6]): no binding
